# Data: the Immune Epitope Database (IEDB)
# Tests used:
# HLA-A*02:12 = test: IEDB peptide-MHC binding, purified MHC/competitive/fluorescence; filed as Kd, often an IC50 or EC50 that approximates it; ≥ and ≤ were set here for values at or beyond the usual limits of such assays
# HLA-A*02:06 [1] = test: as above
# HLA-A*02:03 [2] = test: as above
# HLA-A*69:01 = test: as above
# HLA-A*02:11 = test: as above
# HLA-A*02:19 = test: as above
# HLA-A*02:01 [3] = test: as above
# HLA-A*02:16 = test: as above
# HLA-B*83:01 = test: as above; details: source organism: West Nile virus
# HLA-A*32:15 = test: as above; details: source organism: West Nile virus
# HLA-A*32:07 = test: as above; details: source organism: West Nile virus
# HLA-B*45:06 = test: as above; details: source organism: West Nile virus
# HLA-A*68:23 = test: as above; details: source organism: West Nile virus
# HLA-B*15:42 = test: as above; details: source organism: West Nile virus
# HLA-A*02:03 [4] = test: IEDB peptide-MHC binding, purified MHC/competitive/radioactivity; filed as Kd, often an IC50 or EC50 that approximates it; ≥ and ≤ were set here for values at or beyond the usual limits of such assays
# HLA-A*02:17 = test: as above
# HLA-A*02:01 [5] = test: as above
# HLA-A*29:02 = test: IEDB peptide-MHC binding, purified MHC/competitive/fluorescence; filed as Kd, often an IC50 or EC50 that approximates it; ≥ and ≤ were set here for values at or beyond the usual limits of such assays
# HLA-C*12:03 = test: IEDB peptide-MHC binding, purified MHC/direct/fluorescence; filed as Kd, often an IC50 or EC50 that approximates it; ≥ and ≤ were set here for values at or beyond the usual limits of such assays; details: source organism: Bacillus anthracis str. A0488
# HLA-C*15:02 = test: as above
# HLA-B*35:01 = test: IEDB peptide-MHC binding, purified MHC/competitive/fluorescence; filed as Kd, often an IC50 or EC50 that approximates it; ≥ and ≤ were set here for values at or beyond the usual limits of such assays
# HLA-A*03:01 = test: as above
# HLA-B*27:03 = test: as above
# HLA-A*24:03 = test: as above
# HLA-B*39:01 = test: as above
# HLA-A*26:01 = test: as above
# HLA-A*68:02 = test: as above
# HLA-A*02:06 [6] = test: IEDB peptide-MHC binding, purified MHC/competitive/radioactivity; filed as Kd, often an IC50 or EC50 that approximates it; ≥ and ≤ were set here for values at or beyond the usual limits of such assays
# HLA-B*08:01 = test: as above; details: source organism: Dengue virus 1 Brazil/97-11/1997
# HLA-B*51:01 = test: IEDB peptide-MHC binding, purified MHC/competitive/fluorescence; filed as Kd, often an IC50 or EC50 that approximates it; ≥ and ≤ were set here for values at or beyond the usual limits of such assays
# HLA-B*07:02 = test: IEDB peptide-MHC binding, purified MHC/direct/fluorescence; filed as Kd, often an IC50 or EC50 that approximates it; ≥ and ≤ were set here for values at or beyond the usual limits of such assays; details: source organism: Mammarenavirus juninense
# HLA-B*54:01 = test: IEDB peptide-MHC binding, purified MHC/competitive/radioactivity; filed as Kd, often an IC50 or EC50 that approximates it; ≥ and ≤ were set here for values at or beyond the usual limits of such assays; details: source organism: Mammarenavirus juninense
# HLA-B*53:01 = test: as above; details: source organism: Mammarenavirus juninense
# HLA-B*18:01 = test: IEDB peptide-MHC binding, purified MHC/competitive/fluorescence; filed as Kd, often an IC50 or EC50 that approximates it; ≥ and ≤ were set here for values at or beyond the usual limits of such assays
# HLA-B*15:01 = test: as above
# HLA-A*31:01 = test: as above; details: source organism: Escherichia coli 536
# HLA-B*57:01 = test: as above
# HLA-B*46:01 = test: as above
# HLA-B*15:17 = test: as above; details: source organism: Cryptosporidium parvum Iowa II
# [7] = source organism: Human immunodeficiency virus 1
# [8] = source organism: Dengue virus 4 Philippines/H241/1956
# [9] = source organism: Bacillus anthracis str. A0488
# [10] = source organism: Salmonella enterica subsp. enterica serovar Typhi
# [11] = source organism: Entamoeba histolytica HM-1:IMSS
# [12] = source organism: Dengue virus 2 Jamaica/1409/1983
# [13] = source organism: Dengue virus 3 China/80-2/1980
# [14] = source organism: Dengue virus 1 Brazil/97-11/1997
# [15] = source organism: Dengue virus 1 Singapore/S275/1990
# [16] = source organism: Mammarenavirus juninense
# [17] = source organism: Human herpesvirus 5 strain Towne
# [18] = source organism: Escherichia coli 536
# [19] = source organism: Cryptosporidium parvum Iowa II
sequence,measurement,setting,value
DLADQLIHL,Kd,HLA-A*02:12; [7],476 nM
same,Kd,HLA-A*02:06 [1]; [7],59 nM
same,Kd,HLA-A*02:03 [2]; [7],136 nM
same,Kd,HLA-A*69:01; [7],19.8 nM
same,Kd,HLA-A*02:11; [7],33 nM
same,Kd,HLA-A*02:19; [7],42.5 nM
same,Kd,HLA-A*02:01 [3]; [7],178 nM
same,Kd,HLA-A*02:16; [7],55.5 nM
ETTNWLWTF,Kd,HLA-B*83:01,≥ 5000 nM
same,Kd,HLA-A*32:15,18.5 nM
same,Kd,HLA-A*32:07,1.7 nM
same,Kd,HLA-B*45:06,≥ 5000 nM
same,Kd,HLA-A*68:23,2.2 nM
same,Kd,HLA-B*15:42,≥ 5000 nM
FMTATPPGA,Kd,HLA-A*02:03 [4]; [8],152 nM
same,Kd,HLA-A*02:17; [8],6440 nM
same,Kd,HLA-A*02:01 [5]; [8],49 nM
FVFGIPLLV,Kd,HLA-A*29:02; [9],0.2 nM
same,Kd,HLA-C*12:03,≤ 1 nM
same,Kd,HLA-C*15:02; [9],41 nM
HVCYFSHPY,Kd,HLA-B*35:01; [10],0.7 nM
same,Kd,HLA-A*03:01; [10],≥ 20000 nM
KLSMGLIAI,Kd,HLA-A*02:03 [4]; [8],31.4 nM
same,Kd,HLA-A*02:17; [8],2480 nM
same,Kd,HLA-A*02:01 [5]; [8],12.4 nM
KTFEWGVFY,Kd,HLA-A*02:12; [11],≥ 20000 nM
same,Kd,HLA-B*27:03; [11],≥ 20000 nM
same,Kd,HLA-A*24:03; [11],≥ 20000 nM
same,Kd,HLA-A*02:03 [2]; [11],≥ 20000 nM
same,Kd,HLA-A*69:01; [11],≥ 20000 nM
same,Kd,HLA-B*39:01; [11],≥ 20000 nM
same,Kd,HLA-A*02:19; [11],≥ 20000 nM
same,Kd,HLA-A*26:01; [11],≥ 20000 nM
same,Kd,HLA-A*02:16; [11],≥ 20000 nM
same,Kd,HLA-A*29:02; [11],0.5 nM
same,Kd,HLA-A*68:02; [11],≥ 20000 nM
KTIPVAMTL,Kd,HLA-C*15:02; source organism: Salmonella enterica subsp. enterica serovar Typhimurium str. LT2,15 nM
LIFILLTAV,Kd,HLA-A*02:06 [6]; [12],497 nM
same,Kd,HLA-A*02:03 [4]; [12],56.2 nM
same,Kd,HLA-A*02:17; [12],3590 nM
same,Kd,HLA-A*02:01 [5]; [12],74.4 nM
LLLGLMILL,Kd,HLA-A*02:17; [13],110 nM
same,Kd,HLA-A*02:01 [5]; [13],13.6 nM
LLMRTTWAL,Kd,HLA-A*02:06 [6]; [14],1.43 nM
same,Kd,HLA-A*02:03 [4]; [14],0.817 nM
same,Kd,HLA-A*02:17; [15],4.89 nM
same,Kd,HLA-A*02:01 [5]; [15],21.4 nM
same,Kd,HLA-B*08:01,20.7 nM
LPTTITVPV,Kd,HLA-B*51:01; [16],700 nM
same,Kd,HLA-B*35:01; [16],≤ 0.1 nM
same,Kd,HLA-B*07:02,824 nM
same,Kd,HLA-B*54:01,9 nM
same,Kd,HLA-B*53:01,127 nM
NLVPMVATV,Kd,HLA-A*02:12; [17],1.55 nM
same,Kd,HLA-A*02:06 [1]; [17],≤ 0.1 nM
same,Kd,HLA-A*69:01; [17],75 nM
same,Kd,HLA-A*02:11; [17],≤ 0.1 nM
same,Kd,HLA-A*02:19; [17],0.6 nM
same,Kd,HLA-A*02:16; [17],0.543 nM
RVGIYFGMK,Kd,HLA-A*02:12; [18],≥ 20000 nM
same,Kd,HLA-A*24:03; [18],≥ 20000 nM
same,Kd,HLA-A*02:03 [2]; [18],≥ 20000 nM
same,Kd,HLA-B*51:01; [18],≥ 20000 nM
same,Kd,HLA-A*69:01; [18],≥ 20000 nM
same,Kd,HLA-B*39:01; [18],≥ 20000 nM
same,Kd,HLA-A*02:11; [18],≥ 20000 nM
same,Kd,HLA-A*02:19; [18],≥ 20000 nM
same,Kd,HLA-B*18:01; [18],≥ 20000 nM
same,Kd,HLA-B*15:01; [18],≥ 20000 nM
same,Kd,HLA-A*02:01 [3]; [18],≥ 20000 nM
same,Kd,HLA-A*31:01,45.6 nM
same,Kd,HLA-A*26:01; [18],≥ 20000 nM
same,Kd,HLA-B*57:01; [18],≥ 20000 nM
same,Kd,HLA-A*02:16; [18],≥ 20000 nM
same,Kd,HLA-A*68:02; [18],≥ 20000 nM
same,Kd,HLA-B*46:01; [18],≥ 20000 nM
TLLLLTLLAT,Kd,HLA-A*02:17; [12],1320 nM
same,Kd,HLA-A*02:01 [5]; [12],141 nM
VTNRHEEKF,Kd,HLA-C*15:02; source organism: human gammaherpesvirus 4,4270 nM
VYWENEVSI,Kd,HLA-A*02:12; [19],286 nM
same,Kd,HLA-B*27:03; [19],≥ 20000 nM
same,Kd,HLA-A*02:03 [2]; [19],≥ 20000 nM
same,Kd,HLA-B*51:01; [19],≥ 20000 nM
same,Kd,HLA-A*69:01; [19],≥ 20000 nM
same,Kd,HLA-B*39:01; [19],≥ 20000 nM
same,Kd,HLA-A*02:11; [19],≥ 20000 nM
same,Kd,HLA-A*02:19; [19],≥ 20000 nM
same,Kd,HLA-B*18:01; [19],≥ 20000 nM
same,Kd,HLA-B*15:01; [19],≥ 20000 nM
same,Kd,HLA-A*02:01 [3]; [19],≥ 20000 nM
same,Kd,HLA-A*26:01; [19],≥ 20000 nM
same,Kd,HLA-B*57:01; [19],≥ 20000 nM
same,Kd,HLA-A*02:16; [19],≥ 20000 nM
same,Kd,HLA-A*29:02; [19],≥ 20000 nM
same,Kd,HLA-A*68:02; [19],≥ 20000 nM
same,Kd,HLA-A*03:01; [19],≥ 20000 nM
same,Kd,HLA-B*15:17,≥ 20000 nM
same,Kd,HLA-B*46:01; [19],≥ 20000 nM
YMPTVIEEL,Kd,HLA-A*02:06 [6]; [8],46.9 nM
same,Kd,HLA-A*02:03 [4]; [8],91.9 nM
same,Kd,HLA-A*02:17; [8],5.23 nM
same,Kd,HLA-A*02:01 [5]; [8],39.6 nM
